# In paper PMC6086657, “Structure of the human volume regulated anion channel” (eLife, 2018):
# Molecular target: the molecule itself
# Experiment: cryo-EM structure; SWELL1-FLAG homomer in 20 mM Tris pH 8, 150 mM NaCl, 0.05% digitonin, ~8 mg/mL on UltrAuFoil grids; C3 symmetry imposed; ~4 Å map
protein,measurement,value
"human SWELL1 (LRRC8A) with a C-terminal FLAG-tag (SWELL1-GGG-FLAG) (natural protein, UniProt Q8IWT6 1-810, looked up, SWELL1 (LRRC8A), human, UniProt Q8IWT6, cDNA Origene #RC208632; the abstract calls it full-length; the model holds residues 15-68, 94-174, 232-802 (inner subunit) and 15-68, 94-175, 214-802 (outer subunit); Homohexamer (trimer of dimers); The solubilization buffer held 2 mg/mL iodoacetamide; One endogenous SWELL1 allele remained intact in the expression cell line; also called SWELL1-FLAG; …) MIPVTELRYFADTQPAYRILKPWWDVFTDYISIVMLMIAVFGGTLQVTQDKMICLPCKWVTKDSCNDSFRGWAAPGPEPTYPNSTILPTPDTGPTGIKYDLDRHQYNYVDAVCYENRLHWFAKYFPYLVLLHTLIFLACSNFWFKFPRTSSKLEHFVSILLKCFDSPWTTRALSETVVEESDPKPAFSKMNGSMDKKSSTVSEDVEATVPMLQRTKSRIEQGIVDRSETGVLDKKEGEQAKALFEKVKKFRTHVEEGDIVYRLYMRQTIIKVIKFILIICYTVYYVHNIKFDVDCTVDIESLTGYRTYRCAHPLATLFKILASFYISLVIFYGLICMYTLWWMLRRSLKKYSFESIREESSYSDIPDVKNDFAFMLHLIDQYDPLYSKRFAVFLSEVSENKLRQLNLNNEWTLDKLRQRLTKNAQDKLELHLFMLSGIPDTVFDLVELEVLKLELIPDVTIPPSIAQLTGLKELWLYHTAAKIEAPALAFLRENLRALHIKFTDIKEIPLWIYSLKTLEELHLTGNLSAENNRYIVIDGLRELKRLKVLRLKSNLSKLPQVVTDVGVHLQKLSINNEGTKLIVLNSLKKMANLTELELIRCDLERIPHSIFSLHNLQEIDLKDNNLKTIEEIISFQHLHRLTCLKLWYNHIAYIPIQIGNLTNLERLYLNRNKIEKIPTQLFYCRKLRYLDLSHNNLTFLPADIGLLQNLQNLAITANRIETLPPELFQCRKLRALHLGNNVLQSLPSRVGELTNLTQIELRGNRLECLPVELGECPLLKRSGLVVEEDLFNTLPPEVKERLWRADKEQA",stoichiometry N,6
